B1: RP-014_VEGF-A_Sab (Fab, V domains shown)
VH: QVQLVQSGAEVKKPGASVKVSCKASGYTFSIYTIHWVRQAPGQGLEWMGGINPYNGNTKYAQKFQGRVTMTRDTSISTAYMELSRLRSDDTAVYYCAKAPAVFWWTGLDYWGQGTLVTVSS
VL: QPVLHQPPAMSSALGTTIRLTCTLRNDHDIGVYSVYWYQQRPGHPPRFLLRYFSQSDKSQGPQVPPRFSGSKDVARNRGYLSISELQPEDEAMYYCAMGARSSVTHVFGSGTQLTVLS
notes: also called anti-VEGF-A Sab; not shown: CH1 domain
B2: RP-017_ANG-2_Sab (Fab, V domains shown)
VH: EVQLVESGGGLVKPGGSLRLSCAASGFTFSSYGMHWVRQAPGKGLEWVAGISADSGDKNYADSVKGRFTISRDNAKNSLYLQMNSLRAEDTAVYYCAKEFISWIYTFDYLDYWGQGTLVTVSS
VL: B1 VL
notes: also called anti-ANG-2 Sab; not shown: CH1 domain

Experiments:
[1] = target: T1, Recombinant human VEGF165 (Peprotech, Cat #100-20) (human, UniProt P15692-4 27-191); test: ELISA on rhVEGF165; biotinylated anti-VpreB antibody and streptavidin-HRP detection
T1 construct: Bought protein; also called rhVEGF165; rh VEGF165

[2] = target: T2, His-tagged recombinant human ANG-2 (AcroBiosystems, Cat #AN2-H52H4) (human, UniProt O15123 275-496); test: ELISA on rhANG-2; biotinylated anti-VpreB antibody and streptavidin-HRP detection
T2 construct: also called rhANG-2; rhANG-2-His; not shown: His tag
T2 sequence (looked up): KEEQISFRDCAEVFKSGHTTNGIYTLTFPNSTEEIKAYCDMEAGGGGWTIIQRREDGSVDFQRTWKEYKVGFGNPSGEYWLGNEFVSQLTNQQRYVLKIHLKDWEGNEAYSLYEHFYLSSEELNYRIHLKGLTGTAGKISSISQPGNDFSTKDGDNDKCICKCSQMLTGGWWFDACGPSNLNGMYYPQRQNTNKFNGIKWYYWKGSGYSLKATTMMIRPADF
Method: SgG1 was diluted in blocking buffer at a starting concentration of 10 nM. Sab and scSv were diluted in blocking buffer at a starting concentration of 100 nM. They were then 1:3 serial diluted.

T1 sequence (P15692 other isoform, or with tags, fused parts or gaps limits assumed): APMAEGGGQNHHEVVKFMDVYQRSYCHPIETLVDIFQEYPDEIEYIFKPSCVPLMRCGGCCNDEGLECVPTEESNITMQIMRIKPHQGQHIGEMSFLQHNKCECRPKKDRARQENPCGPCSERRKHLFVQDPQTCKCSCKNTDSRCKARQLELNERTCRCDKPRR

Row | EC50 [1] [nM] | EC50 [2] [nM] | Binder
1 | 0.0063 | – | B1
2 | – | 0.0485 | B2

— patent publication US20250250330A1 (REVOPSIS THERAPEUTICS, published 2025)
